In publication PMC12157500:

Legend:
[1] = target: 57CrGPDH705-FLAG, di-domain glycerol-3-phosphate dehydrogenase from Chlamydomonas reinhardtii with 30 additional N-terminal amino acids (Chlamydomonas reinhardtii); experiment: SEC
[2] = target: 87CrGPDH705-FLAG, di-domain glycerol-3-phosphate dehydrogenase from Chlamydomonas reinhardtii with the chloroplast targeting sequence removed (Chlamydomonas reinhardtii); experiment: SEC

Row | Substance | stoichiometry N [1] | stoichiometry N [2]
1 | 57CrGPDH705-FLAG, di-domain glycerol-3-phosphate dehydrogenase from Chlamydomonas reinhardtii with 30 additional N-terminal amino acids (enzyme) | 5 | –
2 | 87CrGPDH705-FLAG, di-domain glycerol-3-phosphate dehydrogenase from Chlamydomonas reinhardtii with the chloroplast targeting sequence removed (enzyme) | – | 4
